Test results published in patent US20220242941A1 (NOVOBIND LIVESTOCK THERAPEUTICS, published 2022).
Where a chain is given by its changes, count along the chain named.

Experiments:
Eimeria maxima MIC2 = target: T1, Eimeria maxima MIC2 (Eimeria maxima); assay: phage ELISA, antigen-coated wells;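 further: antigen dissolved in PBS and coated onto wells, with negative-control wells holding PBS alone as the reference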
T1 construct: Recombinant antigen coated on ELISA wells; also called EmMIC2
T1 chain: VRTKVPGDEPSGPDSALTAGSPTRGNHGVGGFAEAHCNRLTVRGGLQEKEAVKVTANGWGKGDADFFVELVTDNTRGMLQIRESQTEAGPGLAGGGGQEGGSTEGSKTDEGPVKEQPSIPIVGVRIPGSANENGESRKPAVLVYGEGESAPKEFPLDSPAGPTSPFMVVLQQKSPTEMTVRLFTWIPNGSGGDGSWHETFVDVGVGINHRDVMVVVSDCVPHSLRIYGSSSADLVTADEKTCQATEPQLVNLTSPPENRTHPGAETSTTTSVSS
From the text: (§1) Black bars show binding to wells coated with the antigen specified in Tables 1 and 2 dissolved in phosphate-buffered saline (PBS). Grey bars are negative controls that show binding to wells coated with PBS only.

Eimeria tenella MIC2 = target: T2, Eimeria tenella MIC2 (Eimeria tenella); assay: phage ELISA, antigen-coated wells;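 further: antigen dissolved in PBS and coated onto wells, with negative-control wells holding PBS alone as the reference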
T2 construct: Recombinant antigen coated on ELISA wells; also called EtMIC2
T2 chain: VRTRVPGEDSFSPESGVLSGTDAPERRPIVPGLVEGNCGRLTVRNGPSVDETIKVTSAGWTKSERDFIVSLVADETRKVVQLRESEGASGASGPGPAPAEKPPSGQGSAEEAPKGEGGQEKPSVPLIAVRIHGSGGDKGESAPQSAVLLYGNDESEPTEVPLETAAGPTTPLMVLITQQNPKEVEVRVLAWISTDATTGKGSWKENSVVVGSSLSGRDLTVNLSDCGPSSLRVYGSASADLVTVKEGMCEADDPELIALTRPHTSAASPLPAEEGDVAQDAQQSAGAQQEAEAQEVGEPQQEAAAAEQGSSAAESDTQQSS
From the text: as §1

[1] = target: T3, GST fusion of the EmAMA1-binding peptide of EmRON2 (Eimeria maxima, UniProt P08515 1-218 = GST); assay: phage ELISA, wells coated with GST-RON2 peptide
T3 construct: Expressed in E. coli, purified as the other antigens but without TEV cleavage, so a His tag and TEV site probably remain; also called GST-RON2 peptide
T3 sequence (P08515 1-218, tags or fused parts left off): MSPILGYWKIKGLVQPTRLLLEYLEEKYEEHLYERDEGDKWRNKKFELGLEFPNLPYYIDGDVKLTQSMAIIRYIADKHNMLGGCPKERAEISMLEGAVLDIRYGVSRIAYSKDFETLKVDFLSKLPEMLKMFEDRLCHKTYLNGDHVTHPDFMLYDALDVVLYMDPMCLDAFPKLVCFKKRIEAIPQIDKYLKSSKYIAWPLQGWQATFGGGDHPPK

B1: NBX0710 (VHH)
VHH: QVQLQESGGGLVQAGGSLRLSCAASGSIFSINAMGWYRQAPGKQRELVAGITSGGSTNYADSVKGRFTISRDNAKNTVYLQMNSLKPEDTAVYYCAADYVGLGDDAFYVPYWGQGTQVTVSA
In the case of B1, the “binding relative to PBS-coated wells” value (Eimeria maxima MIC2) is reported as ≥ 4 times.

B2: NBX0750 (VHH)
VHH: QVQLQESGGGLVQPGDSLRLSCAPSGRTFSGYVTGWFRQAPGMEREFVAAITWSGDSTYYADSVKGRFQISRDSAKNTVYLQMNSLKPEDAGVYYCAVKSQTYSTDYVQPRRYAYWGQGTQVTVSS
In the case of B2, the “binding relative to PBS-coated wells” value (Eimeria maxima MIC2) is reported as ≥ 4 times.

B3: NBX0726 (VHH)
VHH: QVQLQQSGGGLVQAGGSVRLSCTANGLTFGNYAMAWFRRTPGKERAFVGGMSASGAGTYYLDSVKGRFTISRDTAKNTVYLEMNSLKAEDTAVYYCAANSIYPGRRWASYDYWGQGTQVTVSS
In the case of B3, the “binding relative to PBS-coated wells” value (Eimeria tenella MIC2) is reported as ≥ 4 times.

B4: NBX0727 (VHH)
VHH: QVQLQQSGGGLVQAGGSVRLSCAASGLTLGNYALAWFRRTPGKEREFVAGMSGSGAGTYYLDSVNGRFTISRDNAKNTLYLQMNSLKAEDTAVYYCAANSIYPGRRWASYDYWGQGTQVTVSS
In the case of B4, the “binding relative to PBS-coated wells” value (Eimeria tenella MIC2) is reported as ≥ 4 times.

B5: NBX0751 (VHH)
VHH: QVQLQESGGGLVQPGGSLRLSCAVSGTIFSITPMGWYRQAPGKQRELVASISGGGSTNYTDPVKGRFTISRDKARNTVYLQMNNLKPEDTAVYYCNAASLAIVRGINNYWGQGTQVTVSS
B5 was tested, and the “binding relative to PBS-coated wells” value (Eimeria maxima MIC2) was ≥ 4 times.

B6: NBX17019 (VHH)
VHH: QVQLQESGGGLVQAGGSLRLSCTGPGSTFSSYAVGWYRQAPGGNREWVASISSSGEITRYADSVTGRFTISRDNAKNTVDLQMNSLRPEDTAVYYCAIGTMARGKGTLVTVSS
With B6 the “binding relative to GST-coated wells” value [1] was ≥ 3 times and the “binding relative to PBS-coated wells” value [1] was ≥ 4 times.

B7: NBX17024 (VHH)
VHH: QVQLQESGPGLVKPSQTLSLTCTVSGGSITTSYSTWSWIRQPPGKGLEWMGVIADDGSAEYSPSLKSRTSISLDTSKNQFSLQLSSVTPEDTAVYYCARRGGAWGSNWWAYHMDDWGKGTLVTVSS
With B7 the “binding relative to GST-coated wells” value [1] was ≥ 3 times and the “binding relative to PBS-coated wells” value [1] was ≥ 4 times.

B8: NBX0749 (VHH)
VHH: QVQLQESGGGLVQAGGSLRLSCATSGSIFSRDTMAWYRQVPGEQRELVAYITNFGGTNHADSVKGRFTISRDNAKNTVYLQMNSLKPEDTAVYYCAAGLLSLRTHTWEYWGQGTQVTVSS
For B8, the “binding relative to PBS-coated wells” value (Eimeria tenella MIC2) was ≥ 4 times.

B9: NBX0748 (VHH)
VHH: B8 VHH with A23V, T24A, T104S, Y109L
B9 was tested, and the “binding relative to PBS-coated wells” value (Eimeria tenella MIC2) was ≥ 4 times.

B10: NBX0728 (VHH)
VHH: B8 VHH with T24A, G26A, I51V, G98D, L100I
B10 was tested, and the “binding relative to PBS-coated wells” value (Eimeria tenella MIC2) was ≥ 4 times.

B11: NBX17020 (VHH)
VHH: QVQLQQSGGGLVQAGGSLRLSCAGSGRPFGSYVMGWYRQAPGEQREMVARMTSAGSGGVADYGESVKGRFAISRDYAKNMVFLQMNSLKPEDTAVYYCWSALGYWGQGTQVTVSS
For B11, the “binding relative to GST-coated wells” value [1] was ≥ 3 times and the “binding relative to PBS-coated wells” value [1] was ≥ 4 times.
